# B1: 1Lf-2LI: chimeric oleate hydratase: 193 N-terminal amino acids of Lysinibacillus fusiformis enzyme and 394 C-terminal amino acids of Lactococcus lactis enzyme (protein)
# chain: MYYSNGNYEAFARPKKPEGVDGKSAYLIGSGLASLSAACFLIRDGQMKGENIHILEELDISGGSLDGILNPTRGFIIRGGREMEDHFECLWDLFRSIPSLEVDNASVLDEFYWLNKEDPNYSKCRLIKDRGQRLEDDGKFTLSDQSSEEMIKLFFTPEEKLEDKKITDVFSEEFFESNFWLYWSTMFAFEKWHSAIEMRRYIMRFIHHIEGLPDFSALKFTKYNQYESLVKPLISYLKDHGVDFKYGAQVENVEVDFSNGKKVAKAIVFADKKIKELTGNDLVFVTNGSITESSTQGSPTQVAPKTSELGGSWKLWQNLAKQSEEFGHPDVFCKDIPKEAWVVSATVTWKNLKIQPYFEKLTHRQLRSGKVVTGGIVTVKDSNWLLSFTTHRQPHFKEQNDQETVTWVYGLLSNTPGNYIKKPIEDCTGEEITQELLYHLGMPEEEIEAFVKENTNTIPVYMPFITSYFMLREPGDRPLVVPEQSVNLAFLGNFAETERDTVFTTEYSVRTAMEAVYQLLNVDRGVPEVYASAYDLRTLASSAYYLSDKQKLEDLELSFIKKQALKVGLKKIKGTYIEELLEDAGLI
# modifications: OhyLfus581Llac
# notes: chimeric oleate hydratase: 193 N-terminal amino acids of Lysinibacillus fusiformis enzyme and 394 C-terminal amino acids of Lactococcus lactis enzyme
# B2: 1LI-2Lf: chimeric oleate hydratase: 193 N-terminal amino acids of Lactococcus lactis enzyme and 397 C-terminal amino acids of Lysinibacillus fusiformis enzyme (protein)
# chain: MRYTNGNYEAFVHPRKPENVDQKSAYIIGAGLAGLATAVFLIRDGQMSGDRIHILEELPLSGGSLDGSFIPHDGFVVRGGREMENHFECLWDLFRTIPSLEVDNASVLDEFYRIDRDDPNSSNCRIIHNRGERVDDDGKFTLSPKAQEEIIKLFMTKEELLVGKTIEDCFTDEFFESNFWLYWCSMFAFEKWHSAMEMRRYIMRFIHHIGGLPDLSALKFTKYNQYESLVLPMIKYLEGHDVDFQYNTVVENVLVDKVGDKKVAHTLVLRKNGVKENIELTENELVFVTNGSITESTTYGDNYTPAPVNKELGGSWSLWKNIAAQDTDFGRPEKFCDNLPKESWFVSATLTTLDDRVAPYIEKISKRDPYAGKVVTGGIVTATDSNWMLSYTLNRQPHFKHQPKDQLVVWIYGLLSNKPGDFIKKSITECSGIEIAQEWLYHMGVPVDEIPDIAQNSCNTIPCYMPYITSYFMPRAMGDRPLVVPEGSANLAFIGNFSETVRDTVFTTEYSVRTAMEAVYQLLNIDRGVPEVFASSFDVRTLLASTARLLDGKKLTDIDAPFILKQIGKLGIHKTKDTIIYDLLKESELI
# modifications: OhyLlac579Lfus
# notes: chimeric oleate hydratase: 193 N-terminal amino acids of Lactococcus lactis enzyme and 397 C-terminal amino acids of Lysinibacillus fusiformis enzyme
# B3: oleate hydratase from Lactococcus lactis: oleate hydratase of Lactococcus lactis strain A106, previously annotated as linoleate isomerase (protein, listed as Lactococcus lactis)
# chain: MRYTNGNYEAFVHPRKPENVDQKSAYIIGAGLAGLATAVFLIRDGQMSGDRIHILEELPLSGGSLDGSFIPHDGFVVRGGREMENHFECLWDLFRTIPSLEVDNASVLDEFYRIDRDDPNSSNCRIIHNRGERVDDDGKFTLSPKAQEEIIKLFMTKEELLVGKTIEDCFTDEFFESNFWLYWCSMFAFEKWHSAIEMRRYIMRFIHHIEGLPDFSALKFTKYNQYESLVKPLISYLKDHGVDFKYGAQVENVEVDFSNGKKVAKAIVFADKKIKELTGNDLVFVTNGSITESSTQGSPTQVAPKTSELGGSWKLWQNLAKQSEEFGHPDVFCKDIPKEAWVVSATVTWKNLKIQPYFEKLTHRQLRSGKVVTGGIVTVKDSNWLLSFTTHRQPHFKEQNDQETVTWVYGLLSNTPGNYIKKPIEDCTGEEITQELLYHLGMPEEEIEAFVKENTNTIPVYMPFITSYFMLREPGDRPLVVPEQSVNLAFLGNFAETERDTVFTTEYSVRTAMEAVYQLLNVDRGVPEVYASAYDLRTLASSAYYLSDKQKLEDLELSFIKKQALKVGLKKIKGTYIEELLEDAGLI
# modifications: Oleat Hydratase
# notes: oleate hydratase of Lactococcus lactis strain A106, previously annotated as linoleate isomerase
# B4: oleate hydratase from Lysinibacillus fusiformis: oleate hydratase of Lysinibacillus fusiformis, known from the prior art (protein, listed as Lysinibacillus fusiformis)
# chain: MYYSNGNYEAFARPKKPEGVDGKSAYLIGSGLASLSAACFLIRDGQMKGENIHILEELDISGGSLDGILNPTRGFIIRGGREMEDHFECLWDLFRSIPSLEVDNASVLDEFYWLNKEDPNYSKCRLIKDRGQRLEDDGKFTLSDQSSEEMIKLFFTPEEKLEDKKITDVFSEEFFESNFWLYWSTMFAFEKWHSAMEMRRYIMRFIHHIGGLPDLSALKFTKYNQYESLVLPMIKYLEGHDVDFQYNTVVENVLVDKVGDKKVAHTLVLRKNGVKENIELTENELVFVTNGSITESTTYGDNYTPAPVNKELGGSWSLWKNIAAQDTDFGRPEKFCDNLPKESWFVSATLTTLDDRVAPYIEKISKRDPYAGKVVTGGIVTATDSNWMLSYTLNRQPHFKHQPKDQLVVWIYGLLSNKPGDFIKKSITECSGIEIAQEWLYHMGVPVDEIPDIAQNSCNTIPCYMPYITSYFMPRAMGDRPLVVPEGSANLAFIGNFSETVRDTVFTTEYSVRTAMEAVYQLLNIDRGVPEVFASSFDVRTLLASTARLLDGKKLTDIDAPFILKQIGKLGIHKTKDTIIYDLLKESELI
# modifications: Oleat Hydratase
# notes: oleate hydratase of Lysinibacillus fusiformis, known from the prior art
# Legend:
# [1] = Effects of pH on enzyme activity (oleic acid to 10-hydroxystearic acid, HPLC-MS); assay type: biochemical; conditions: citrate/phosphate buffer pH 5.6-8.0, 30° C., 40 min, 150 mM oleic acid
# Procedure: The reactions were performed in 100 mM citrate/phosphate buffer (pH levels ranging from 5.6-8.0) containing MgSO4; 8.9 mg/ml total protein of Lactococcus lactis or 9.3 mg/mL of total protein of chimeric oleate hydratase from Lysinibacillus fusiformis and Lactococcus lactis. FAD (0.1 mM) and NADH (5 mM) were applied for the FAD-reducing conditions. Reactions were started by the addition of 150 mM oleic acid at 30° C. for 40 min. Following the reactions, the solutions of fatty acids and hydroxy fatty acids were recovered by three consecutive extractions with 1.6 volume of dichloromethane. After solvent evaporation, the resultant sample was diluted in ethanol and analyzed by HPLC-MS. Analyses were performed on an Agilent 1100 HPLC instrument equipped with evaporative light scattering detector (ELSD) and a Luna® C18 (2) HPLC column (RP-18e 5 μm, 250×4.6 mm) maintained at 50° C. The elution system consisted of ddH2O with 0.1% formic acid (A) and methanol with 0.1% formic acid (B). The gradient was set as follows: 0 min (80% B); 15 min (100% B); 23.2 min (80% B) at a flow rate of 0.7 mL min^−1.
# Data represent the mean±standard deviation of three independent experiments (FIG. 5A and FIG. 6A).
# [2] = Effects of temperature on enzyme activity (oleic acid to 10-hydroxystearic acid); assay type: biochemical; conditions: pH7.0, 150 mM oleic acid, 20 min
# Procedure: The reactions were performed in 100 mM citrate/phosphate buffer (pH7.0) containing MgSO4;
# 3.1 mg/ml total protein of Lactococcus lactis (a) or 5.6 mg/mL of total protein of chimeric oleate hydratase from Lysinibacillus fusiformis and Lactococcus lactis (b). FAD (0.1 mM) and NADH (5 mM) were applied for the FAD-reducing conditions. Reactions were started by the addition of 150 mM oleic acid for 20 min. At the relative activity of 100%, the specific enzyme activity of the oleate hydratase from Lactococcus lactis was 0.8 μmol min^−1 mg^−1 total protein and the specific enzyme activity of the chimeric oleate hydratase from Lysinibacillus fusiformis and Lactococcus lactis was 1.0 μmol min^−1 mg^−1 total protein.
# [3] = Conversion of oleic acid to 10-hydroxystearic acid by cell-free extracts (HPLC); assay type: biochemical; conditions: for activity at 30° C. compared with the wildtype enzymes: FIG. 3; for conversion of oleic acid to 10-hydroxystearic acid: cell-free extracts, pH7.0, 30° C., 150 mM oleic acid, 60 min, FAD 0.1 mM, NADH 5 mM, HPLC analysis
# [4] = Kim, Bi-Na et al. (2012); cited from earlier work
molecule,measurement,setting,value
B1,pH optimum,[1],6.5
same,specific enzyme activity at the relative activity of 100%,[2],1.0 μmol min^−1 mg^−1 total protein
same,activity at 30° C. compared with the wildtype enzymes,[3],higher than the wildtype enzyme from Lactococcus lactis and lower than the wildtype enzyme from Lysinibacillus fusiformis
same,conversion of oleic acid to 10-hydroxystearic acid,[3],confirmed
B2,activity at 30° C. compared with the wildtype enzymes,[3],higher than the wildtype enzyme from Lactococcus lactis and lower than the wildtype enzyme from Lysinibacillus fusiformis
same,conversion of oleic acid to 10-hydroxystearic acid,[3],confirmed
B3,specific enzyme activity at the relative activity of 100%,[2],0.8 μmol min^−1 mg^−1 total protein
same,temperature of highest enzyme activity (temperature optimum),[2],15 °C
B4,temperature of maximal enzyme activity,[4],35 °C
